Consider one compound from article PMC10388305, “Synthesis and Evaluation of a Monomethyl Auristatin E—Integrin αvβ6 Binding Peptide–Drug Conjugate for Tumor Targeted Drug Delivery” (Journal of Medicinal Chemistry, 2023).

Like-named read-outs stand apart in the source and are kept apart here.

The test system of series [1] is BxPC-3 (+) cells. Nature of the series: Cell binding assay, BxPC-3. The note with it: 1 h, 37 °C, γ-counter, n = 3. The format is cell-based. The source says: Binding to cells with minimal to no expression of integrin αvβ6 was low at 4.4 ± 0.1% to DX3puro cells and 7.9 ± 0.4% to pancreatic MIA PaCa-2 cells. Binding of [^64Cu]PDC-1 to DX3puroβ6 (+) and BxPC-3 (+) was reduced by adding increasing amounts of DOTA-PDC-1, illustrating that the αvβ6-selective uptake could be blocked (Figure S3). Internalization of [^64Cu]-PDC-1 into cells was high with >50% of the bound radioactivity internalized for all cells expressing the integrin αvβ6. In comparison, cell binding of [^64Cu]2 to DX3puroβ6 (+) cells was 58.8 ± 2.3, and 3.3 ± 0.4% to the DX3puro (−) cells.
Cell binding and internalization assay. Binding and internalization were determined as previously described. […] The fraction of bound radioactivity was determined with a γ-counter (by measuring cell pellet and combined supernatants). To determine the fraction of internalized radioactivity, the cells were re-pelleted, and re-suspended in acidic wash buffer (0.2 M sodium acetate, 0.5 M sodium chloride, pH = 2.5, 300 μL, 4 °C, 5 min) to release surface bound activity, followed by a wash with PBS (300 μL). The internalized fraction was determined with a γ-counter (cell pellet vs. radioactivity released into supernatant). A Wizard 1470 or Wizard 2 2470 automatic γ-counter (Perkin-Elmer, Waltham, MA) was used to measure radioactivity samples. […]

Series [2] is described as follows: Blocking biodistribution, paired DX3puroβ6/DX3puro model. Type of series: in vivo, mice. The note with it: female, athymic nude, mouse, iv, total radioactivity, 4 h p.i., DOTA-2 (50 mg/kg, 205 nmol) i.v. 10 min prior, γ-counter, mean ± SD, n = 2. As for the experimental part: Aliquots of the formulated [^64Cu]PDC-1 in isotonic 0.9% saline (4.81–5.74 MBq, 1.7–2.1 μg, 0.26–0.31 nmol, 100 μL, pH 7.2) were injected i.v. as described above. Following the conscious uptake period, the mice were anesthetized (5% isoflurane), euthanized, and dissected (n ≥ 3/model/time point [4, 24, and 48 h]; the 48 h time point also included the imaging animals sacrificed after the PET scans). Tissues were collected, washed, weighed, and radioactivity measured in a γ-counter. Calibrated, decay-corrected radioactivity was expressed as the percentage of injected dose per gram of tissue (% ID/g). Data are reported as mean ± SD. The mean weights and standard deviation of the DX3puroβ6/DX3puro paired tumor model biodistribution mice were 24.3 ± 1.4 g at 4 h, 28.2 ± 2.9 g at 24 h, and 27.7 ± 2.6 g at 48 h. The mean weights and standard deviation of the BxPC-3 tumor model biodistribution mice were 25.1 ± 1.9 g at 4 h, 27.0 ± 1.1 g at 24 h and 27.1 ± 3.2 g at 48 h. For in vivo blocking studies, DOTA-2 (50 mg/kg, 205 nmol, 1.4 mg in 100 μL 0.9% saline) was injected i.v. into two animals/tumor model 10 min prior to [^64Cu]PDC-1. The animals were sacrificed after 4 h, tissues collected, washed, weighed, and radioactivity measured in a γ-counter. The mean weights and standard deviation for the blocking mice were 24.6 ± 0 and 27.9 ± 0.3 g for the DX3puroβ6/DX3puro paired and BxPC-3 tumor models, respectively.
Blocking biodistribution data of [64Cu]PDC-1 in paired DX3puroβ6/DX3puro and BxPC-3 tumor models.
Tumor Model DX3puroβ6/DX3puro BxPC-3
Table S6. Blocking biodistribution data of [ 64Cu]PDC-1 in paired DX3puroβ6/DX3puro and BxPC-3 tumor
models. Tissue uptake is expressed as the mean of the percentage of injected dose per gram of tissue ±
SD (n = 2/model, n/a = not applicable. P = 0.53 for DX3puroβ6 vs. DX3puro; P = 0.52 for BxPC-3 vs.

On to `CC[C@H](C)[C@@H]([C@@H](CC(=O)N1CCC[C@H]1[C@H](OC)[C@@H](C)C(=O)N[C@H](C)[C@@H](O)c1ccccc1)OC)N(C)C(=O)[C@@H](NC(=O)[C@H](C(C)C)N(C)C(=O)OCc1ccc(NC(=O)[C@H](CCCNC(N)=O)NC(=O)[C@@H](NC(=O)CCOCCOCCNC(=O)CCN2C(=O)CC(SC[C@H](NC(=O)CN3CCN(CC(=O)O)CCN(CC(=O)O)CCN(CC(=O)O)CC3)C(=O)NCCOCCOCCOCCOCCOCCOCCOCCOCCOCCOCCOCCOCCOCCOCCOCCOCCOCCOCCOCCOCCOCCOCCOCCOCCOCCOCCOCCOCCC(=O)N[C@@H](CC(N)=O)C(=O)N[C@@H](C)C(=O)N[C@H](C(=O)N3CCC[C@H]3C(=O)N[C@@H](CC(N)=O)C(=O)N[C@@H](CC(C)C)C(=O)N[C@@H](CCCNC(=N)N)C(=O)NCC(=O)N[C@@H](CC(=O)O)C(=O)N[C@@H](CC(C)C)C(=O)N[C@@H](CCC(N)=O)C(=O)N[C@H](C(=O)N[C@@H](CC(C)C)C(=O)N[C@@H](C)C(=O)N[C@@H](CCC(N)=O)C(=O)N[C@@H](CCCNC(=N)N)C(=O)N[C@H](C(=O)N[C@@H](C)C(=O)N[C@@H](CCCNC(=N)N)C(=O)N[C@H](C(=O)NCCOCCOCCOCCOCCOCCOCCOCCOCCOCCOCCOCCOCCOCCOCCOCCOCCOCCOCCOCCOCCOCCOCCOCCOCCOCCOCCOCCOCCC(N)=O)[C@@H](C)O)C(C)C)C(C)C)C(C)C)C2=O)C(C)C)cc1)C(C)C` (stereo partly drawn) [[^64Cu]PDC-1, metal not drawn], for which, in series [1], the Cell binding was determined as 62.0 ± 1.0%. The tissue uptake at 4 h in series [2] (DX3puro (αvβ6 −) tumor, read-out: Tumor (αvβ6 −) DX3puro uptake, blocked) came to 0.42 ± 0.04 %ID/g; in series [2] (DX3puroβ6 (αvβ6 +) tumor, read-out: Tumor (αvβ6 +) DX3puroβ6 uptake, blocked) it was 0.39 ± 0.04 %ID/g; in series [2] (blood, read-out: Blood uptake, blocked) it was 0.08 ± 0.02 %ID/g; in series [2] (bone, read-out: Bone uptake, blocked), 0.1 ± 0.03 %ID/g; in series [2] (brain, read-out: Brain uptake, blocked), 0.02 %ID/g; in series [2] (gall bladder, read-out: Gall Bladder uptake, blocked), 0.28 ± 0.4 %ID/g. Further, the tissue uptake at 4 h in series [2] (heart, read-out: Heart uptake, blocked) came out at 0.17 ± 0.03 %ID/g; in series [2] (kidney, read-out: Kidney uptake, blocked), 36.4 ± 5.43 %ID/g; in series [2] (large intestines, read-out: Large Intestines uptake, blocked), 0.51 ± 0.1 %ID/g; in series [2] (liver, read-out: Liver uptake, blocked) it was 1.39 ± 0.45 %ID/g; in series [2] (lung, read-out: Lung uptake, blocked), 0.39 ± 0.09 %ID/g; in series [2] (muscle, read-out: Muscle uptake, blocked) it was 0.04 %ID/g. Further, the tissue uptake at 4 h in series [2] (pancreas, read-out: Pancreas uptake, blocked) was 0.08 ± 0.01 %ID/g; in series [2] (skin, read-out: Skin uptake, blocked), 0.29 ± 0.02 %ID/g; in series [2] (small intestines, read-out: Small Intestines uptake, blocked), 0.36 ± 0.02 %ID/g; in series [2] (spleen, read-out: Spleen uptake, blocked) it was 0.19 ± 0.01 %ID/g; in series [2] (stomach, read-out: Stomach uptake, blocked), 0.27 ± 0.06 %ID/g.
